Target: zebrafish Ctla-4, HA-tagged (pCDNA3.1-HA-Ctla-4) (zebrafish)
Assay: Western blot under non-reducing and reducing conditions

Work on “zebrafish Ctla-4, HA-tagged (pCDNA3.1-HA-Ctla-4) (receptor)” yielded a stoichiometry N of 2.

From article doi:10.1101/2024.07.24.604955
